What was measured:
Assay in all cases: other fluorescence titration
[1] = target: FIH-Gln239 → Ala variant (human)
[2] = target: FIH-Gln239 → Asn variant (human)
[3] = target: FIH-Gln239 → Glu variant (human)
[4] = target: FIH-Gln239 → His variant (human)

Kd [1]: 100 µM
Kd [2]: 98 µM
Kd [3]: 75 µM
Kd [4]: 64 µM
B1: 39-mer CTAD peptide (C-terminal activation domain of human HIF1α, HIF1α 788–826, Cys800 → Ala) (peptide)
peptide: DESGLPQLTSYDAEVNAPIQGSRNLLQGEELLRALDQVN
